Key:
Human CD73 on cells = biological target: T1, Human CD73 on cells (human, UniProt P21589 27-549); assay: cell-based or functional assay
T1 sequence: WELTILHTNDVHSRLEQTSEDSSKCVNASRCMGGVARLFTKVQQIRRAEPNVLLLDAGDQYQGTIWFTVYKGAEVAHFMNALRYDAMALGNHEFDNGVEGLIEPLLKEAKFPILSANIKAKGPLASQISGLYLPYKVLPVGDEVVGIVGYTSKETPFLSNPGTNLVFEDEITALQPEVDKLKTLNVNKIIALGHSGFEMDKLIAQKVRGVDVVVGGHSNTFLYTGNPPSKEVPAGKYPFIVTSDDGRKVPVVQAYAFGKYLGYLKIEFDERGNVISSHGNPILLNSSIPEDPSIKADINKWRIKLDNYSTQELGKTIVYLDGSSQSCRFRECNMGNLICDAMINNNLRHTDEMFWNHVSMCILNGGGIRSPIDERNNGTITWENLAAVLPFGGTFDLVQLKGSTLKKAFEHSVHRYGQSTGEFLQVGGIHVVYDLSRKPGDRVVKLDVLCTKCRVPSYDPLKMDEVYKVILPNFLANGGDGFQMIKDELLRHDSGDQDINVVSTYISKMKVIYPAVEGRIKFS

Murine CD73 on cells = biological target: T2, Murine CD73 on cells (murine, UniProt Q61503 29-551); assay: cell-based or functional assay
T2 sequence (looked up): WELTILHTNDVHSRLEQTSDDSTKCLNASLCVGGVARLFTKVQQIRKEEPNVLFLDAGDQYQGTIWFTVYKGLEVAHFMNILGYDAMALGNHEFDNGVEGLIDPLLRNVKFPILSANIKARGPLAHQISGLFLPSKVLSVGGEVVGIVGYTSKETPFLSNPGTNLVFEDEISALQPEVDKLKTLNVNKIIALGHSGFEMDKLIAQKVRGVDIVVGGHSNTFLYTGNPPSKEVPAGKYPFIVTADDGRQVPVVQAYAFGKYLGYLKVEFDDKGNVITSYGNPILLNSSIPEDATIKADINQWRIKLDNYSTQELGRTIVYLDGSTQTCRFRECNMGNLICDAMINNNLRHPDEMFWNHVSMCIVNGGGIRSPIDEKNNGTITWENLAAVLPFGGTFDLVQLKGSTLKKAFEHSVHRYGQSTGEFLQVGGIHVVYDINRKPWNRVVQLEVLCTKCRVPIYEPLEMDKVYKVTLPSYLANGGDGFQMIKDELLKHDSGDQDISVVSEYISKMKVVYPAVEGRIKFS

B1: MEDI9447 (antibody, human IgG1, lambda, V domains shown)
VH: EVQLLESGGGLVQPGGSLRLSCAASGFTFSSYAYSWVRQAPGKGLEWVSAISGSGGRTYYADSVKGRFTISRDNSKNTLYLQMNSLRAEDTAVYYCARLGYGRVDEWGRGTLVTVSS
VL: QSVLTQPPSASGTPGQRVTISCSGSLSNIGRNPVNWYQQLPGTAPKLLIYLDNLRLSGVPDRFSGSKSGTSASLAISGLQSEDEADYYCATWDDSHPGWTFGGGTKLTVLG
Antibody-mediated internalization of cytotoxic FabZAP reagent into MDA-MB-231 cells, EC50 (Human CD73 on cells): 0.0035 nM
Antibody-mediated internalization of cytotoxic FabZAP reagent into 4T1 cells, EC50 (Murine CD73 on cells): 0.0185 nM

Source: patent US20180125973A1 (AstraZeneca / MedImmune, published 2018)
